According to publication PMC4011586:

Biological target: human platelet-derived growth factor alpha receptor (human (endogenous in U373)) (UniProt P16234)
UniProt P16234, sequence (P16234 24-1089): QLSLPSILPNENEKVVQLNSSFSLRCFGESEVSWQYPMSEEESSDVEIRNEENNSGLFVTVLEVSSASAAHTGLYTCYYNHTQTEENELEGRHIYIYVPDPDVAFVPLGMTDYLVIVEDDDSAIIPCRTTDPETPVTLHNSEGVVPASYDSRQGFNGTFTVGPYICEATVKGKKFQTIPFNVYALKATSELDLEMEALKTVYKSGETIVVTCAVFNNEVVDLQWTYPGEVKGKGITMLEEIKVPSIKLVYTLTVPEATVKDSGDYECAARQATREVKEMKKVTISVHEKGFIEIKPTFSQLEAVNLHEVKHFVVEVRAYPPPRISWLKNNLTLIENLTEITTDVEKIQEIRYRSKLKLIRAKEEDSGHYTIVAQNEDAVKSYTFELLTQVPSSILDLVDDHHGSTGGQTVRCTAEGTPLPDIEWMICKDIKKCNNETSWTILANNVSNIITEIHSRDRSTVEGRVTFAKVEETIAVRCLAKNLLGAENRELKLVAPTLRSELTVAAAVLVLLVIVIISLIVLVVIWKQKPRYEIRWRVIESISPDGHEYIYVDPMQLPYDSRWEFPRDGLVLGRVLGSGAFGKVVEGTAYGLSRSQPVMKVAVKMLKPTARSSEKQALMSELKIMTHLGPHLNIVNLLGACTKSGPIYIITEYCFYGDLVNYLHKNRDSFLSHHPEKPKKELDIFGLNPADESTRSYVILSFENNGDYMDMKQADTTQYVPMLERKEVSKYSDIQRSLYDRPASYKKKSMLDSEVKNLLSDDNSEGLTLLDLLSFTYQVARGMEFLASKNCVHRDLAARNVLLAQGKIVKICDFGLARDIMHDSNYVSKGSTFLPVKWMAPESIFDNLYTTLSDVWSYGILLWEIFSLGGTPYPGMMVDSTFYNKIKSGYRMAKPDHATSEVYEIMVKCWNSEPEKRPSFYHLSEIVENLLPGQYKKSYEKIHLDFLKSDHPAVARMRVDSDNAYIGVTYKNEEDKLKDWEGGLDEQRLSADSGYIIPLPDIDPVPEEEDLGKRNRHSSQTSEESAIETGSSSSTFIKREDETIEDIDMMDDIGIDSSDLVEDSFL

Q: With “recombinant HCMV glycoprotein B (from UniProt P13201 23-907) (ligand)” as the substance, how does the phosphorylation of PDGFRα in U373 cells stimulated with recombinant gB, cell based ELISA, relative to PDGF-AA (100%) read?
A: 50%
